Experimental data reported in article PMC6078178 (Nature, 2017).

Target: T1, Tfa1 (TFIIE subunit) (S. cerevisiae, UniProt P36100 1-482)
T1 sequence (looked up): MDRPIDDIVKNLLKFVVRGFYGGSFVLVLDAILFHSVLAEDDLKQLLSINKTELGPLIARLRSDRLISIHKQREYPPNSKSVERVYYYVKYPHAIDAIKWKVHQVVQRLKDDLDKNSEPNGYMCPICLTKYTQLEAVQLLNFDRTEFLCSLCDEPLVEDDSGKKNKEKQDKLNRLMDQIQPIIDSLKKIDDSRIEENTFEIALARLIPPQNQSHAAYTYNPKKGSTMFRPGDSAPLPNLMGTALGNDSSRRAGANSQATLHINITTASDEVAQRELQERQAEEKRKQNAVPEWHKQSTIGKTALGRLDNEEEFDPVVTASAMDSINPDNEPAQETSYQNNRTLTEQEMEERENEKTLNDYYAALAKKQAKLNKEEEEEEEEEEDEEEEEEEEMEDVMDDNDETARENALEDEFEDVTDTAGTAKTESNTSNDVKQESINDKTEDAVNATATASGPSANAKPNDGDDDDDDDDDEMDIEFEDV
Experiment: cross-linking

- binding result: binds
B1: Ssl1 (natural protein, S. cerevisiae, UniProt Q04673 1-461, looked up)
chain: MAPVVISESEEDEDRVAITRRTKRQVHFDGEGDDRVDQQQQQHSSSHRDRDKHVQRKKKKRLSNRNLQGSNGGYAWEDEIKRSWDLVKVDDEGDMASLVASIVEARKKRTAKKNITPYQRGIIRSLILTLDCSEAMLEKDLRPNRHAMIIQYAIDFVHEFFDQNPISQMGIIIMRNGLAQLVSQVSGNPQDHIDALKSIRKQEPKGNPSLQNALEMARGLLLPVPAHCTREVLIVFGSLSTTDPGDIHQTIDSLVSEKIRVKVLGLSAQVAICKELCKATNYGDESFYKILLDETHLKELFNEAVTPLPVNKINKGFTLVKMGFPTRIFEDTPTFCSCHSKLVYGGYFCPNCHSKVCSLPTVCPCCDLMLILSTHLARSYHHLMPLKTFAEVPTTEKFRSEDCFSCQSRFPILKNHKNGKLLTSSRYRCEDCKQEFCVDCDVFIHEILHNCPGCESKPVIT
